This is an account of results in patent US20150110781A1.

Common to all, as to experiment: cell-based or functional assay
Test [1] deals with Street rabies virus Deer, DRV, Jilin (rabies virus).
For test [2], the target named is Street rabies virus Ferret Badger, JX09-27, Jiangxi (rabies virus).
Test [3] has as its target Street rabies virus Dog, GN07, Guangdong (rabies virus).
Test [4] deals with Street rabies virus Human, YN1, Yunnan (rabies virus).
Test [5] deals with Street rabies virus Dog, SC-CD09, Sichuan (rabies virus).
For test [6], the target named is Street rabies virus Ferret Badger, ZJ-LA, Zhejiang (rabies virus).
The target in test [7] is Street rabies virus Ferret Badger, JX08-45, Jiangxi (rabies virus).
For test [8], the target named is CVS-11 rabies virus (rabies virus) (UniProt O92284).
Test [9] concerns the target Street rabies virus Dog, ZJ-HZ09, Zhejiang (rabies virus).
Test [10] addresses Street rabies virus Dog, BD06, Hebei (rabies virus).
Test [11] addresses Street rabies virus Human, HN35, Hunan (rabies virus).

Sequence of UniProt O92284 (O92284 20-524): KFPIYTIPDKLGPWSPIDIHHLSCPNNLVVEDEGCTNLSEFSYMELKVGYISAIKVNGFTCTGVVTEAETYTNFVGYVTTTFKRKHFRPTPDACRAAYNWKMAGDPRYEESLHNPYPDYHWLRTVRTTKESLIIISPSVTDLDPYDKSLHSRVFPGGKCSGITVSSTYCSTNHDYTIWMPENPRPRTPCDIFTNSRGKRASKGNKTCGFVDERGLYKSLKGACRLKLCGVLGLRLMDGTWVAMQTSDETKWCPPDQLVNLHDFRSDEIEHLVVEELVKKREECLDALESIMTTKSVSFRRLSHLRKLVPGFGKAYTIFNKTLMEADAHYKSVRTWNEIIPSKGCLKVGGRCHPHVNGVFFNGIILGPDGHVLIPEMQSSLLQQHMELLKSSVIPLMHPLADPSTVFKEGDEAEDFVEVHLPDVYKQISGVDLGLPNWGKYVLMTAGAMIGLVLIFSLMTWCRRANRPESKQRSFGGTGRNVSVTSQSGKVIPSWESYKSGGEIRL

B1: Mouse CT.RV 3D11E3 1A9 (antibody, V domains shown)
VH: EIQLQQTGPELVKPGASVKISCKASGYSFTDYIMLWVKQSHGKSLEWIGDIYPYYGSTSYNLKFKGKATLTVDKSSSTAYMQLNSLTSEDSAVYYCARQGGDGNYVLFDYWGQGTTLTVSS
VL: DIVMTQSQKFMSTSVGDRVSVTCKASQNVGTTVAWYQQKPGQSPKALIYSASYRYSGVPDRFTGSGSGTDFTLTISNVQSEDLAEYFCQQYNSYPFTFGSGTKLEIK
As for B1, the mouse neutralization test (MNT): survivors of 8 mice at day 20 (of 8 surviving) in test [1] came out at 7; in test [2], 8; in test [3], 7; in test [4], 7; in test [5] it was 8; in test [6] it was 7. Further, the mouse neutralization test (MNT): survivors of 8 mice at day 20 (of 8 surviving) was 8 in [7], 6 in test [9], 4 in [10] and 8 in test [11]. The molecule also yielded a Neutralization potency (IU/mg), FAVN in [8] of 308 IU/mg. Moreover, the Neutralization potency (IU/mg), RFFIT in test [8] was found to be 1260 IU/mg. The same molecule displayed a Neutralizing Potency (IU/mg), RFFIT in [8] of 3680 IU/mg. Besides, in test [8], the mouse neutralization test (MNT): survival rate at 0.004 mg/mL antibody is 50%.

B2: Mouse CT.RV 7G11A3 2G11 (antibody, V domains shown)
VH: EVQLVESGGGLVKPGGSLILSCAASGFTFSGFAMSWVRQTPEKRLEWVATISSGGTYTYSPDSVMGRFTISRDNAKNTLYLQMSSLRSEDTAMYYCARRLRRNYYSMDYWGQGTSVTVSS
VL: DVVLTQAPLSLPVNIGDQASISCKSTKSLLNSDGFTYLDWYLQKPGQSPQLLIYLVSNRFSGVPDRFSGSGSGTDFTLKISRVEAEDLGIYFCFQSNYLPFTFGSGTKLEIK
For the molecule B2, the mouse neutralization test (MNT): survivors of 8 mice at day 20 (of 8 surviving) in test [1] was 8; in [2], 8; in [3], 7; in test [4], 7; in test [5] it was 8; in test [6], 8. Also, the mouse neutralization test (MNT): survivors of 8 mice at day 20 (of 8 surviving) is 8 in test [7], 7 in [9], 6 in test [10] and 8 in test [11]. The Neutralization potency (IU/mg), FAVN in test [8] turned out to be 8310 IU/mg. Further, the Neutralization potency (IU/mg), RFFIT in [8] stood at 1670 IU/mg. The Neutralizing Potency (IU/mg), RFFIT in test [8] was 701 IU/mg.

B3: Hu1A9-1 (antibody, V domains shown)
VH: QVQLVQSGAEVKKPGASVKVSCKASGYSFTDYIMLWVRQAPGQRLEWIGDIYPYYGSTSYNLKFKGKATLTVDTSASTAYMELSSLRSEDTAVYYCARQGGDGNYVLFDYWGQGTLVTVSS
VL: DIQMTQSPSSLSASVGDRVTITCKASQNVGTTVAWYQQKPGKAPKALIYSASYRYSGVPSRFSGSGSGTDFTLTISSLQPEDFATYYCQQYNSYPFTFGQGTKLEIKR
Consider B3, for which, in test [8], the Neutralization potency (IU/mg), FAVN was found to be 2100 IU/mg; the Neutralization potency (IU/mg), RFFIT came to 2290 IU/mg; the mouse neutralization test (MNT): survival rate at 0.004 mg/mL antibody was 100%.

B4: Hu1A9-2 (antibody, V domains shown)
VH: QVQLVQSGAEVKKPGASVKVSCKASGYSFTDYIMLWVRQAPGQRLEWIGDIYPYYGSTSYNLKFKGKATLTVDTSASTAYMELSSLRSEDTAVYYCARQGGDGNYVLFDYWGQGTLVTVSS
VL: DIQMTQSPSSLSASVGDRVTITCKASQNVGTTVAWYQQKPGKAPKVLIYSASYRYSGVPSRFSGSGSGTDFTLTISSLQPEDFATYYCQQYNSYPFTFGQGTKLEIKR
In test [8], B4 came in with a Neutralization potency (IU/mg), FAVN of 405 IU/mg and a Neutralization potency (IU/mg), RFFIT of 1310 IU/mg.
